# Assay results from publication PMC9018529 (Molecular microbiology, 2022).
# B1: SymE (Escherichia coli MG1655), untagged after TEV cleavage of His6-TEV-SymE (natural protein, E. coli MG1655, UniProt P39394 1-113, looked up)
# chain: MTDTHSIAQPFEAEVSPANNRHVTVGYASRYPDYSRIPAITLKGQWLEAAGFATGTAVDVKVMEGCIVLTAQPPAAEESELMQSLRQVCKLSARKQKQVQAFIGVIAGKQKVA
# Biological target: the molecule itself
# Assay: SEC
protein,measurement,value
B1,stoichiometry N,~4
